From patent publication US10927153 (UNIVERSITY OF SOUTH FLORIDA, dated 2021) come the findings set out here.

For test [1], the target named is T1, Duffy Antigen Receptor for Chemokines (DARC) on human Duffy positive erythrocytes (human, UniProt Q16570 1-336).
T1 construct: whole, on cells; also called DARC positive erythrocytes
T1 sequence: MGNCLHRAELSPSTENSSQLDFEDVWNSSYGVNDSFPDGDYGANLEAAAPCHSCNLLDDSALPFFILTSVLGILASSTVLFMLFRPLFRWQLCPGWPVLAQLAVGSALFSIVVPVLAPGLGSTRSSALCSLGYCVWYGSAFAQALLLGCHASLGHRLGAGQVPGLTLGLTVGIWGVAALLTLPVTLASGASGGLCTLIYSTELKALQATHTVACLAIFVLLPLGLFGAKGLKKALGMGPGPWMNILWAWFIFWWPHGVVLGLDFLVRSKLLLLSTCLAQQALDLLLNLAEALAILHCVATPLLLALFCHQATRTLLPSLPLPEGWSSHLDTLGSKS
Description: in vitro erythrocyte binding assay, blot of eluted antigen.

Test [2] deals with T1, Duffy Antigen Receptor for Chemokines …. The test is described as follows: COS7 cell binding assay (rosettes).
Test [3] addresses T2, Sal-1 DBP-II expressed on the surface of HEK293T cells (Plasmodium vivax, UniProt P22290 198-525).
T2 construct: Expressed from the pRE4 vector on HEK293T cells; also called P. vivax Sal-1 DBP-II
Description: immunofluorescence on HEK293T cells, 10 ug/mL mAb.

Test [4] concerns the target T3, Sal-1 DBP-II Mutant 12 (changes at residues 479 and 480), recombinant (Plasmodium vivax (strain Salvador I), UniProt P22290 211-525).
T3 chain: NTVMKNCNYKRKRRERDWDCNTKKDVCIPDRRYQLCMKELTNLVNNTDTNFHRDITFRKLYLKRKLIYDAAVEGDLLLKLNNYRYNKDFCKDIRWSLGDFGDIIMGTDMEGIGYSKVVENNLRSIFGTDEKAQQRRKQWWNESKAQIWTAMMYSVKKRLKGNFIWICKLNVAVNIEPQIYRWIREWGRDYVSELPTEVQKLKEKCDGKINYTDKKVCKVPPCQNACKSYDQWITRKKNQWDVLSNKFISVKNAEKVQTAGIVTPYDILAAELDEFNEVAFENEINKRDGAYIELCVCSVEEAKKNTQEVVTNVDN
Description: ELISA on adsorbed recombinant protein.

The target of test [5] is T4, Sal-1 DBP-II Mutant 1 (changes at residues 218 and 221-223), recombinant (Plasmodium vivax (strain Salvador I), UniProt P22290 211-525).
T4 chain: T3 chain with N8S, R11G, K12S, R13G, A269K, A270Q
Description: ELISA on adsorbed recombinant protein.

Test [6] concerns the target T1, Duffy Antigen Receptor for Chemokines …. The test is described as follows: in vitro erythrocyte binding assay, eluted antigen detected by blot with mAb-3D10.

Residue numbers refer to the chain shown, from its start.

B1: recombinant DEKnull-2 (designed binder)
chain: TISSAIINHAFLQNTVMKNCNYKRKRRERDWDCNTKKDVCIPDRRYQLCMKELTNLVNNTDTNFHADITFRKLYLKAKLIYDAAVEGDLLTKLNNYRYNKDFCKDIRWSLGDFGDIIMGTDMEGIGTSAVVENNLRSIFGTAATAQARRSQWTSESKAQIWTAMMYSVKKRLKGTFIWICKANVAVNIEPQIYRSIREWGRDYVAELPTEVTKLKEKCDGKINYADKKVCKVPPCQNACKSYDQWITRKANQWDVLSNKFTSAKNAEKAQTASIVTPYDILKQELDEFNEVAFENEINKRDGAYIELCVCSVEEAKKNTQEVVTNVDNHHHHHH
notes: Polymorphic residues of Sal1 mutated; also called rDEKnull-2
Regarding B1, in test [1], the binding result is recorded as “binds”.

B2: DBPII Sal1 expressed on the surface of COS7 cells (ligand)
chain: TISSAIINHAFLQNTVMKNCNYKRKRRERDWDCNTKKDVCIPDRRYQLCMKELTNLVNNTDTNFHRDITFRKLYLKRKLIYDAAVEGDLLLKLNNYRYNKDFCKDIRWSLGDFGDIIMGTDMEGIGYSKVVENNLRSIFGTDEKAQQRRKQWWNESKAQIWTAMMYSVKKRLKGNFIWICKLNVAVNIEPQIYRWIREWGRDYVSELPTEVQKLKEKCDGKINYTDKKVCKVPPCQNACKSYDQWITRKKNQWDVLSNKFISVKNAEKVQTAGIVTPYDILKQELDEFNEVAFENEINKRDGAYIELCVCSVEEAKKNTQEVVTNVDN
notes: also called COS7 cell surface-expressed Sal1; wild type DBPII Sal1
For B2, the binding result in test [2] was “binds”.

B3: recombinant DBPII Sal1 (ligand domain, region II, of Plasmodium vivax Duffy binding protein, Sal1 allele) (ligand)
chain: B2 chain
notes: also called rDBPII Sal1; rDBPII
Regarding B3, the binding result in test [1] is listed as “binds”.

B4: recombinant DEKnull (designed binder)
chain: B2 chain with D142A, E143A, K144T, Q147A, R148T, K150S, W153T, N154S
notes: also called rDEKnull; original DEKnull
Turning to B4, the binding result in test [1] is given as “binds”.

B5: DEKnull-3 expressed on the surface of COS7 cells (designed binder)
chain: TISSAIINHAFLQNTVMKNCNYKRKRRERDWDCNTKKDVCIPDRRYQLCMKELTNLTATATSAAHRDITFRKLYAARTSAYDAAVEGDLLLKLTNYRASTDACKAATWSLGDFGDIIMGTDMEGIGYSKVVATNLRSIFGTDEKAQQRRKQWTATSKAQIWTAMMAASTAASKGNAIWSCKLNVAVNIEPTIAAWIATSARATSSELPTEVQKLKEKCDGKINYTDKKVCKVPPCQNACKSYDQWITRKKNQWDVLSNKFISVKNAEKVQTAGIVTPYDILKQELDEFNEVAFENEINKRDGAYIELCVCSVEEAKKNTQEVVTNVDN
notes: also called COS7 cell surface-expressed DEKnull-3
In the case of B5, the binding result in test [2] was “no binding”.

B6: anti-DBPII monoclonal antibody mAb 2C6 (antibody, V domains shown)
VH: QVQLQQSDAELVKPGASVKISCKVSGYTFTDHSIHWMKQRPEQGLEWIGYIYPRDGSTEYNEKFKGKATLTTDKSSSTAYMQLNSLTSADSAVYFCARWFGYYFDYWGQGTTLTVSS
VL: NIMMTQSPSSLAVSAGEKVTMSCKSSQSVLYSSNQKNYLAWYQQKPGQSPKLLIYWASSRESGVPDRFTGSGSGTDFTLTISSVQPEDLAVYYCHQYLSSWTFGGGTKLEITR
For B6, the binding result in test [3] is reported as “binds”; in test [4], “no binding”; in test [5] it was “binds”.

B7: DEKnull-4 expressed on the surface of COS7 cells (designed binder)
chain: TISSAIINHAFLQNTVMKNCNYKRKRRERDWDCNTKKDVCIPDRRYQLCMKALTNLVNNTDTNFHRDITARKAYLAAKLTADAASEGDLLLKLAATATSAATCKDIRWSLGDFGDIIMGTDMEGIGYSKVVENNLRSIFGTDEKAQQRRKQWWNESKATIWTAMMASATASAATSAATAAKLNVAVNIEPQIYRWIREWGRDYVSELPTEVQKLKEKCDGKINYTDKKVCKVPPCQNACKSYDQWITRKKNQWDVLSNKFISVKNAEKVQTAGIVTPYDILKQELDEFNEVAFENEINKRDGAYIELCVCSVEEAKKNTQEVVTNVDN
notes: also called COS7 cell surface-expressed DEKnull-4
B7: the binding result in test [2] was “no binding”.

B8: recombinant DEKnull-3 (designed binder)
chain: TISSAIINHAFLQNTVMKNCNYKRKRRERDWDCNTKKDVCIPDRRYQLCMKELTNLTATATSAAHRDITFRKLYAARTSAYDAAVEGDLLLKLTNYRASTDACKAATWSLGDFGDIIMGTDMEGIGYSKVVATNLRSIFGTDEKAQQRRKQWTATSKAQIWTAMMAASTAASKGNAIWSCKLNVAVNIEPTIAAWIATSARATSSELPTEVQKLKEKCDGKINYTDKKVCKVPPCQNACKSYDQWITRKKNQWDVLSNKFISVKNAEKVQTAGIVTPYDILKQELDEFNEVAFENEINKRDGAYIELCVCSVEEAKKNTQEVVTNVDNHHHHHH
notes: also called rDEKnull-3
As for B8, the binding result in test [6] was “no binding”.

B9: recombinant DEKnull-4 (designed binder)
chain: TISSAIINHAFLQNTVMKNCNYKRKRRERDWDCNTKKDVCIPDRRYQLCMKALTNLVNNTDTNFHRDITARKAYLAAKLTADAASEGDLLLKLAATATSAATCKDIRWSLGDFGDIIMGTDMEGIGYSKVVENNLRSIFGTDEKAQQRRKQWWNESKATIWTAMMASATASAATSAATAAKLNVAVNIEPQIYRWIREWGRDYVSELPTEVQKLKEKCDGKINYTDKKVCKVPPCQNACKSYDQWITRKKNQWDVLSNKFISVKNAEKVQTAGIVTPYDILKQELDEFNEVAFENEINKRDGAYIELCVCSVEEAKKNTQEVVTNVDNHHHHHH
notes: Dimerization residues of Sal1 mutated; also called rDEKnull-4
B9: the binding result in test [6] is given as “no binding”.

B10: DEKnull-2 expressed on the surface of COS7 cells (designed binder)
chain: TISSAIINHAFLQNTVMKNCNYKRKRRERDWDCNTKKDVCIPDRRYQLCMKELTNLVNNTDTNFHADITFRKLYLKAKLIYDAAVEGDLLTKLNNYRYNKDFCKDIRWSLGDFGDIIMGTDMEGIGTSAVVENNLRSIFGTAATAQARRSQWTSESKAQIWTAMMYSVKKRLKGTFIWICKANVAVNIEPQIYRSIREWGRDYVAELPTEVTKLKEKCDGKINYADKKVCKVPPCQNACKSYDQWITRKANQWDVLSNKFTSAKNAEKAQTASIVTPYDILKQELDEFNEVAFENEINKRDGAYIELCVCSVEEAKKNTQEVVTNVDN
notes: also called COS7 cell surface-expressed rDEKnull-2
Turning to B10, the binding result in test [2] is on record as “binds”.
